Data published in patent US20180155451A1 (published 2018).

B1: GpH7-A5/GpH7-B3 variant K326_08L/GpL16-k0 (antibody, human IgG1, kappa)
heavy 1: not shown
heavy 2: not shown
light: DIVMTQSPLSLPVTPGEPASISCQASESLVHSNRNTYLHWYLQKPGQSPQLLIYKVSNRFSGVPDRFSGSGSGTDFTLKISRVEAEDVGVYYCSQNTHVPPTFGQGTKVEIERTVAAPSVFIFPPSDEQLKSGTASVVCLLNNFYPREAKVQWKVDNALQSGNSQESVTEQDSKDSTYSLSSTLTLSKADYEKHKVYACEVTHQGLSSPVTKSFNRGEC
notes: heterodimerized IgG1, mutation in one H chain only; also called He Ab
B2: GpH7-A5/GpH7-B3 variant K326_09D/GpL16-k0 (antibody, human IgG1, kappa)
heavy 1: not shown
heavy 2: not shown
light: DIVMTQSPLSLPVTPGEPASISCQASESLVHSNRNTYLHWYLQKPGQSPQLLIYKVSNRFSGVPDRFSGSGSGTDFTLKISRVEAEDVGVYYCSQNTHVPPTFGQGTKVEIERTVAAPSVFIFPPSDEQLKSGTASVVCLLNNFYPREAKVQWKVDNALQSGNSQESVTEQDSKDSTYSLSSTLTLSKADYEKHKVYACEVTHQGLSSPVTKSFNRGEC
notes: as for B1
B3: GpH7-A5/GpH7-B3 variant K326_19Q/GpL16-k0 (antibody, human IgG1, kappa)
heavy 1: not shown
heavy 2: not shown
light: DIVMTQSPLSLPVTPGEPASISCQASESLVHSNRNTYLHWYLQKPGQSPQLLIYKVSNRFSGVPDRFSGSGSGTDFTLKISRVEAEDVGVYYCSQNTHVPPTFGQGTKVEIERTVAAPSVFIFPPSDEQLKSGTASVVCLLNNFYPREAKVQWKVDNALQSGNSQESVTEQDSKDSTYSLSSTLTLSKADYEKHKVYACEVTHQGLSSPVTKSFNRGEC
notes: as for B1
B4: GpH7-A5/GpH7-B3 variant K326_10E/GpL16-k0 (antibody, human IgG1, kappa)
heavy 1: not shown
heavy 2: not shown
light: DIVMTQSPLSLPVTPGEPASISCQASESLVHSNRNTYLHWYLQKPGQSPQLLIYKVSNRFSGVPDRFSGSGSGTDFTLKISRVEAEDVGVYYCSQNTHVPPTFGQGTKVEIERTVAAPSVFIFPPSDEQLKSGTASVVCLLNNFYPREAKVQWKVDNALQSGNSQESVTEQDSKDSTYSLSSTLTLSKADYEKHKVYACEVTHQGLSSPVTKSFNRGEC
notes: as for B1
B5: GpH7-A5/GpH7-B3 variant K334_13S/GpL16-k0 (antibody, human IgG1, kappa)
heavy 1: not shown
heavy 2: not shown
light: DIVMTQSPLSLPVTPGEPASISCQASESLVHSNRNTYLHWYLQKPGQSPQLLIYKVSNRFSGVPDRFSGSGSGTDFTLKISRVEAEDVGVYYCSQNTHVPPTFGQGTKVEIERTVAAPSVFIFPPSDEQLKSGTASVVCLLNNFYPREAKVQWKVDNALQSGNSQESVTEQDSKDSTYSLSSTLTLSKADYEKHKVYACEVTHQGLSSPVTKSFNRGEC
notes: as for B1
B6: GpH7-A5/GpH7-B3 variant K334_10E/GpL16-k0 (antibody, human IgG1, kappa)
heavy 1: not shown
heavy 2: not shown
light: DIVMTQSPLSLPVTPGEPASISCQASESLVHSNRNTYLHWYLQKPGQSPQLLIYKVSNRFSGVPDRFSGSGSGTDFTLKISRVEAEDVGVYYCSQNTHVPPTFGQGTKVEIERTVAAPSVFIFPPSDEQLKSGTASVVCLLNNFYPREAKVQWKVDNALQSGNSQESVTEQDSKDSTYSLSSTLTLSKADYEKHKVYACEVTHQGLSSPVTKSFNRGEC
notes: as for B1
B7: GpH7-A5/GpH7-B3 variant K334_04F/GpL16-k0 (antibody, human IgG1, kappa)
heavy 1: not shown
heavy 2: not shown
light: DIVMTQSPLSLPVTPGEPASISCQASESLVHSNRNTYLHWYLQKPGQSPQLLIYKVSNRFSGVPDRFSGSGSGTDFTLKISRVEAEDVGVYYCSQNTHVPPTFGQGTKVEIERTVAAPSVFIFPPSDEQLKSGTASVVCLLNNFYPREAKVQWKVDNALQSGNSQESVTEQDSKDSTYSLSSTLTLSKADYEKHKVYACEVTHQGLSSPVTKSFNRGEC
notes: as for B1
B8: GpH7-A5/GpH7-B3 variant K334_05P/GpL16-k0 (antibody, human IgG1, kappa)
heavy 1: not shown
heavy 2: not shown
light: DIVMTQSPLSLPVTPGEPASISCQASESLVHSNRNTYLHWYLQKPGQSPQLLIYKVSNRFSGVPDRFSGSGSGTDFTLKISRVEAEDVGVYYCSQNTHVPPTFGQGTKVEIERTVAAPSVFIFPPSDEQLKSGTASVVCLLNNFYPREAKVQWKVDNALQSGNSQESVTEQDSKDSTYSLSSTLTLSKADYEKHKVYACEVTHQGLSSPVTKSFNRGEC
notes: as for B1
B9: GpH7-A5/GpH7-B3 variant K334_15Y/GpL16-k0 (antibody, human IgG1, kappa)
heavy 1: not shown
heavy 2: not shown
light: DIVMTQSPLSLPVTPGEPASISCQASESLVHSNRNTYLHWYLQKPGQSPQLLIYKVSNRFSGVPDRFSGSGSGTDFTLKISRVEAEDVGVYYCSQNTHVPPTFGQGTKVEIERTVAAPSVFIFPPSDEQLKSGTASVVCLLNNFYPREAKVQWKVDNALQSGNSQESVTEQDSKDSTYSLSSTLTLSKADYEKHKVYACEVTHQGLSSPVTKSFNRGEC
notes: as for B1
B10: GpH7-A5/GpH7-B3 variant K334_14T/GpL16-k0 (antibody, human IgG1, kappa)
heavy 1: not shown
heavy 2: not shown
light: DIVMTQSPLSLPVTPGEPASISCQASESLVHSNRNTYLHWYLQKPGQSPQLLIYKVSNRFSGVPDRFSGSGSGTDFTLKISRVEAEDVGVYYCSQNTHVPPTFGQGTKVEIERTVAAPSVFIFPPSDEQLKSGTASVVCLLNNFYPREAKVQWKVDNALQSGNSQESVTEQDSKDSTYSLSSTLTLSKADYEKHKVYACEVTHQGLSSPVTKSFNRGEC
notes: as for B1
B11: GpH7-A5/GpH7-B3 variant K334_19Q/GpL16-k0 (antibody, human IgG1, kappa)
heavy 1: not shown
heavy 2: not shown
light: DIVMTQSPLSLPVTPGEPASISCQASESLVHSNRNTYLHWYLQKPGQSPQLLIYKVSNRFSGVPDRFSGSGSGTDFTLKISRVEAEDVGVYYCSQNTHVPPTFGQGTKVEIERTVAAPSVFIFPPSDEQLKSGTASVVCLLNNFYPREAKVQWKVDNALQSGNSQESVTEQDSKDSTYSLSSTLTLSKADYEKHKVYACEVTHQGLSSPVTKSFNRGEC
notes: as for B1

Target: T1, FcγRIIIa extracellular domain with C-terminal His tag (human, UniProt P08637 17-208)
T1 construct: extracellular domain; also called FcgRIIIa; 3a
T1 sequence (P08637 17-208): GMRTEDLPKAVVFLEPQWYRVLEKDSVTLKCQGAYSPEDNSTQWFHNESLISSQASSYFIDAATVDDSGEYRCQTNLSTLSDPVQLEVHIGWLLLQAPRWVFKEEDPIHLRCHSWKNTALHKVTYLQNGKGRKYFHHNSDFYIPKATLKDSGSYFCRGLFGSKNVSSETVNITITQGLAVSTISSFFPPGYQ
Test: SPR, relative to GpH7-A5/GpH7-B3/GpL16-k0

Row | Binder | He/Con_3a
1 | B1 | 114 % of control (=100)
2 | B2 | 134 % of control (=100)
3 | B3 | 106 % of control (=100)
4 | B4 | 124 % of control (=100)
5 | B5 | 145 % of control (=100)
6 | B6 | 181 % of control (=100)
7 | B7 | 148 % of control (=100)
8 | B8 | 134 % of control (=100)
9 | B9 | 141 % of control (=100)
10 | B10 | 141 % of control (=100)
11 | B11 | 136 % of control (=100)
